# In IntAct's records for PubMed 31515488:
# B1: Cyclin-dependent kinase 4 (Homo sapiens), P11802 (parent)
# chain: MATSRYEPVAEIGVGAYGTVYKARDPHSGHFVALKSVRVPNGGGGGGGLPISTVREVALLRRLEAFEHPNVVRLMDVCATSRTDREIKVTLVFEHVDQDLRTYLDKAPPPGLPAETIKDLMRQFLRGLDFLHANCIVHRDLKPENILVTSGGTVKLADFGLARIYSYQMALTPVVVTLWYRAPEVLLQSTYATPVDMWSVGCIFAEMFRRKPLFCGNSEADQLGKIFDLIGLPPEDDWPRDVSLPRGAFPPRGPRPVQSVVPEMEESGAQLLLEMLTFNPHKRISAFRALQHSYLHKDEGNPE
# B2: Ligand of Numb protein X 2 (Homo sapiens), Q8N448 (parent)
# chain: MGTTSDEMVSVEQTSSSSLNPLCFECGQQHWTRENHLYNYQNEVDDDLVCHICLQPLLQPLDTPCGHTFCYKCLRNFLQEKDFCPLDRKRLHFKLCKKSSILVHKLLDKLLVLCPFSSVCKDVMQRCDLEAHLKNRCPGASHRRVALERRKTSRTQAEIENENGPTLLDPAGTLSPEADCLGTGAVPVERHLTSASLSTWSEEPGLDNPAFEESAGADTTQQPLSLPEGEITTIEIHRSNPYIQLGISIVGGNETPLINIVIQEVYRDGVIARDGRLLAGDQILQVNNYNISNVSHNYARAVLSQPCNTLHLTVLRERRFGNRAHNHSDSNSPREEIFQVALHKRDSGEQLGIKLVRRTDEPGVFILDLLEGGLAAQDGRLSSNDRVLAINGHDLKYGTPELAAQIIQASGERVNLTIARPGKPQPGNTIREAGNHSSSSQHHTPPPYYSRPSSHKDLTQCVTCQEKHITVKKEPHESLGMTVAGGRGSKSGELPIFVTSVPPHGCLARDGRIKRGDVLLNINGIDLTNLSHSEAVAMLKASAASPAVALKALEVQIVEEATQNAEEQPSTFSENEYDASWSPSWVMWLGLPSTLHSCHDIVLRRSYLGSWGFSIVGGYEENHTNQPFFIKTIVLGTPAYYDGRLKCGDMIVAVNGLSTVGMSHSALVPMLKEQRNKVTLTVICWPGSLV
# partner: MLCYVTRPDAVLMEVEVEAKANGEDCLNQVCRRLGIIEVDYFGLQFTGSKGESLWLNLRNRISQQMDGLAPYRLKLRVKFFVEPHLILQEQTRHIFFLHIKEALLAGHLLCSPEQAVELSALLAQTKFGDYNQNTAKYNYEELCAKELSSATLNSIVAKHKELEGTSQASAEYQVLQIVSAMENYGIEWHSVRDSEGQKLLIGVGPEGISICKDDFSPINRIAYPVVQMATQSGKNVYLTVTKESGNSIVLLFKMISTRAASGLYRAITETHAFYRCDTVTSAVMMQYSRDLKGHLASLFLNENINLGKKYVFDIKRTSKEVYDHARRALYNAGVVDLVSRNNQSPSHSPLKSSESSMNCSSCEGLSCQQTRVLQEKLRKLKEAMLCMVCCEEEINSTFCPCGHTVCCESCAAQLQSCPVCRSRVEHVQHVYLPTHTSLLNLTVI
# B3: Proline-rich protein 14 (Homo sapiens), Q9BWN1 (parent)
# chain: MDLPGDSSPPGQPRLCRQPLTRALWGARSPKRPRLQLPGAPSPLEKASRRVLAVVLEDVMAVHMVPVVPSKQTSIPQHHSYHQDPVHRQPPASPPRQAGWSSQARPPDPLCLCREPLSRIHRTSSTLRRRSRTTPGPEEGPSQKVDRAPQPTLVVMLEDIASPRPPAEGFIDETPNFIIPAQRAEPMRIVRQPTPPPGDLEPPFQPSALPADPLESPPTAPDPALELPSTPPPSSLLRPRLSPWGLAPLFRSVRSKLESFADIFLTPNKTPQPPPPSPPMKLELKIAISEAEQSGAAEGTASVSPRPPIRQWRTQDHNTPALLPKPSLGRSYSCPDLGPPGPGTCTWPPAPPQPSRPRPRRHTVGGGEMARAPPPPRPCLRKEVFPLGGVGASPSLTTSCSSTASTSFSEPAEPRLGSTKGKEPRASKDQVLSEPETKTMGKVSRFRIRRTPARPQLNLTPMGLPRPIRLNKKEFSLEEIYTNKNYQSPTTRRTFETIFEEPRERNGTLIFTSSRKLRRAVEFRDSSLPRSRRPSRGVRAAGGRTVPPNVAPSPDVGPLLQQRLEELDALLLEEETVDREQPHWT
# B4: LIM/homeobox protein Lhx4 (Homo sapiens), Q969G2 (parent)
# chain: MMQSATVPAEGAVKGLPEMLGVPMQQIPQCAGCNQHILDKFILKVLDRHWHSSCLKCADCQMQLADRCFSRAGSVYCKEDFFKRFGTKCTACQQGIPPTQVVRKAQDFVYHLHCFACIICNRQLATGDEFYLMEDGRLVCKEDYETAKQNDDSEAGAKRPRTTITAKQLETLKNAYKNSPKPARHVREQLSSETGLDMRVVQVWFQNRRAKEKRLKKDAGRHRWGQFYKSVKRSRGSSKQEKESSAEDCGVSDSELSFREDQILSELGHTNRIYGNVGDVTGGQLMNGSFSMDGTGQSYQDLRDGSPYGIPQSPSSISSLPSHAPLLNGLDYTVDSNLGIIAHAGQGVSQTLRAMAGGPTSDISTGSSVGYPDFPTSPGSWLDEMDHPPF
# partner: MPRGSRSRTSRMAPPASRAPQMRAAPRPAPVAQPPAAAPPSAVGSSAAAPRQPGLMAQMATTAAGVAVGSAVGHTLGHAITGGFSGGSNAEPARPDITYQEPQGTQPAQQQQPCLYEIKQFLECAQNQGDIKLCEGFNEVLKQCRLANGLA
# B5: BICD family-like cargo adapter 2 (Homo sapiens), A1A5D9 (parent)
# chain: MSSPDGPSFPSGPLSGGASPSGDEGFFPFVLERRDSFLGGGPGPEEPEDLALQLQQKEKDLLLAAELGKMLLERNEELRRQLETLSAQHLEREERLQQENHELRRGLAARGAEWEARAVELEGDVEALRAQLGEQRSEQQDSGRERARALSELSEQNLRLSQQLAQASQTEQELQRELDALRGQCQAQALAGAELRTRLESLQGENQMLQSRRQDLEAQIRGLREEVEKGEGRLQTTHEELLLLRRERREHSLELERARSEAGEALSALRRLQRRVSELEEESRLQDADVSAASLQSELAHSLDDGDQGQGADAPGDTPTTRSPKTRKASSPQPSPPEEILEPPKKRTSLSPAEILEEKEVEVAKLQDEISLQQAELQSLREELQRQKELRAQEDPGEALHSALSDRDEAVNKALELSLQLNRVSLERDSLSRELLRAIRQKVALTQELEAWQDDMQVVIGQQLRSQRQKELSASASSSTPRRAAPRFSLRLGPGPAGGFLSNLFRRT
# B6: Ligand of Numb protein X 2 (Homo sapiens), Q8N448 (parent)
# chain: B2 chain
# partner: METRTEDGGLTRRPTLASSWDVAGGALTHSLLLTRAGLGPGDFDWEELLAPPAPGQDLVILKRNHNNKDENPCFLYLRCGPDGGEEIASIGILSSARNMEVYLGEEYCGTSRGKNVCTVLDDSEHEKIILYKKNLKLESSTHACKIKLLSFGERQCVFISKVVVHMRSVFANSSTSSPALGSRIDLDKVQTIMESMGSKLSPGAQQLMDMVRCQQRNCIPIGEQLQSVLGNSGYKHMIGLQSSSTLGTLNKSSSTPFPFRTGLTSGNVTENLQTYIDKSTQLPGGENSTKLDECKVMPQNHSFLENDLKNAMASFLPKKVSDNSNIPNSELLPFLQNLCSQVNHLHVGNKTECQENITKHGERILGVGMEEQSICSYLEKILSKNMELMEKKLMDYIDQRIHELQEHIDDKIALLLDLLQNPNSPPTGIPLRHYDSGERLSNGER
# B7: Protein unc-45 homolog A (Homo sapiens), Q9H3U1 (parent)
# chain: MTVSGPGTPEPRPATPGASSVEQLRKEGNELFKCGDYGGALAAYTQALGLDATPQDQAVLHRNRAACHLKLEDYDKAETEASKAIEKDGGDVKALYRRSQALEKLGRLDQAVLDLQRCVSLEPKNKVFQEALRNIGGQIQEKVRYMSSTDAKVEQMFQILLDPEEKGTEKKQKASQNLVVLAREDAGAEKIFRSNGVQLLQRLLDMGETDLMLAALRTLVGICSEHQSRTVATLSILGTRRVVSILGVESQAVSLAACHLLQVMFDALKEGVKKGFRGKEGAIIVDPARELKVLISNLLDLLTEVGVSGQGRDNALTLLIKAVPRKSLKDPNNSLTLWVIDQGLKKILEVGGSLQDPPGELAVTANSRMSASILLSKLFDDLKCDAERENFHRLCENYIKSWFEGQGLAGKLRAIQTVSCLLQGPCDAGNRALELSGVMESVIALCASEQEEEQLVAVEALIHAAGKAKRASFITANGVSLLKDLYKCSEKDSIRIRALVGLCKLGSAGGTDFSMKQFAEGSTLKLAKQCRKWLCNDQIDAGTRRWAVEGLAYLTFDADVKEEFVEDAAALKALFQLSRLEERSVLFAVASALVNCTNSYDYEEPDPKMVELAKYAKQHVPEQHPKDKPSFVRARVKKLLAAGVVSAMVCMVKTESPVLTSSCRELLSRVFLALVEEVEDRGTVVAQGGGRALIPLALEGTDVGQTKAAQALAKLTITSNPEMTFPGERIYEVVRPLVSLLHLNCSGLQNFEALMALTNLAGISERLRQKILKEKAVPMIEGYMFEEHEMIRRAATECMCNLAMSKEVQDLFEAQGNDRLKLLVLYSGEDDELLQRAAAGGLAMLTSMRPTLCSRIPQVTTHWLEILQALLLSSNQELQHRGAVVVLNMVEASREIASTLMESEMMEILSVLAKGDHSPVTRAAAACLDKAVEYGLIQPNQDGE
# Variants of: B1
# Settings: with ccnd1_human CCND1, P24385
# ccnd1_human CCND1, P24385, sequence (P24385 whole entry): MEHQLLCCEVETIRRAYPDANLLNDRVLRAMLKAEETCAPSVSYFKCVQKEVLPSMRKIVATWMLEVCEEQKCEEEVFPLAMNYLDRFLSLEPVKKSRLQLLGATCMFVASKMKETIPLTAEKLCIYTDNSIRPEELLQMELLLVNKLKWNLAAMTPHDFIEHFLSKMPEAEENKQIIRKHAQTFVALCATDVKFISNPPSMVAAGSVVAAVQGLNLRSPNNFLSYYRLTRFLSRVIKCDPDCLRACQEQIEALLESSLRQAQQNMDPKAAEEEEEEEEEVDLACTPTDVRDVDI
row,effect of a mutation on the interaction,Variant
1,with no effect,R24H

# Variants of: B1
# Settings: with ccnd1_human CCND1, P24385
# Remark: another data set of the same source
row,effect of a mutation on the interaction,Variant
1,with no effect,K22R

# Variants of: B1
# Settings: with ccnd2_human CCND2, P30279
# ccnd2_human CCND2, P30279, sequence (P30279 whole entry): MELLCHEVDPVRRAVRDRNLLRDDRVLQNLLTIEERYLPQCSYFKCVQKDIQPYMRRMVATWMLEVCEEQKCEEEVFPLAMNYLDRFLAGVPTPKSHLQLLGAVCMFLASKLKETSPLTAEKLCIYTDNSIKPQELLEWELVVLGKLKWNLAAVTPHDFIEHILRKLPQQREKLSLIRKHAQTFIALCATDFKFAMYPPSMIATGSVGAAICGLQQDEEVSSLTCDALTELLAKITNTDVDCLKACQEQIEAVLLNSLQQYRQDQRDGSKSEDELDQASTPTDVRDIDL
row,effect of a mutation on the interaction,Variant
1,with no effect,K22R

# Variants of: B1
# Settings: with cdn2c_human CDKN2C
row,effect of a mutation on the interaction,Variant
1,with no effect,K22R

# Variants of: B1
# Settings: with ccnd3_human CCND3, P30281
# ccnd3_human CCND3, P30281, sequence (P30281 whole entry): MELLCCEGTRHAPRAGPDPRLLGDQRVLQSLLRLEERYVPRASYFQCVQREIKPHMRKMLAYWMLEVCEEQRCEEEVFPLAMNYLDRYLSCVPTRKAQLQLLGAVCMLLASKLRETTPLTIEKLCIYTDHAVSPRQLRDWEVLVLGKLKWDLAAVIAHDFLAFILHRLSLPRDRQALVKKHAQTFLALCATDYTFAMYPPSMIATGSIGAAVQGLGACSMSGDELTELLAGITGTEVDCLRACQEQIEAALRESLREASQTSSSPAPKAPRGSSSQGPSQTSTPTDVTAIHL
row,effect of a mutation on the interaction,Variant
1,with no effect,K22R

# Variants of: B2
# Settings: with mylip_human MYLIP
row,effect of a mutation on the interaction,Variant
1,with no effect,S198P

# Variants of: B3
# Settings: with cbx5_human CBX5, P45973
# cbx5_human CBX5, P45973, sequence (P45973 whole entry): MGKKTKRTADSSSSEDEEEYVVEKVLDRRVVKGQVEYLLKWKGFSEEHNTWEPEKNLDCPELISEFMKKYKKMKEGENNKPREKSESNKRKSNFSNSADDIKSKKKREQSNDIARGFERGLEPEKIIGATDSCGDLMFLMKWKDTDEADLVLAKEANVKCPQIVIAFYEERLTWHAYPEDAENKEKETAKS
row,effect of a mutation on the interaction,Variant
1,with no effect,P359L
2,with no effect,R114L

# Variants of: B4
# Settings: with chch2_human CHCHD2, Q9Y6H1
row,effect of a mutation on the interaction,Variant
1,with no effect,N328S

# Variants of: B5
# Settings: with klc3_human KLC3, Q6P597
# klc3_human KLC3, Q6P597, sequence (Q6P597 whole entry): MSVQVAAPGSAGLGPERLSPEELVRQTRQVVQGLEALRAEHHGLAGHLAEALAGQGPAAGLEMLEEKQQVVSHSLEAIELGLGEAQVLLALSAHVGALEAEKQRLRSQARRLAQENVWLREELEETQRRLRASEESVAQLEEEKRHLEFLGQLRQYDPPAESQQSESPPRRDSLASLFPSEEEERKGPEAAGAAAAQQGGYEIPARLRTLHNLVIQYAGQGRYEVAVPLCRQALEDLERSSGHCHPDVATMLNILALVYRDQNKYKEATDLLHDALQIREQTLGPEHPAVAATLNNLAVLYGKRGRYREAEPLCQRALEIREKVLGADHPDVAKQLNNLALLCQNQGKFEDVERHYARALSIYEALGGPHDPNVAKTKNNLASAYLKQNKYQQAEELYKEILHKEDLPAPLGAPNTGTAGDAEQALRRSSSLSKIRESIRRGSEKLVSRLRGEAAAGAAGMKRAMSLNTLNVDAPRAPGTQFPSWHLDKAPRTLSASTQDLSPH
row,effect of a mutation on the interaction,Variant
1,with no effect,E58K

# Variants of: B6
# Settings: with paat_human PAAT
row,effect of a mutation on the interaction,Variant
1,with no effect,V145I
2,with no effect,T183I

# Variants of: B7
# Settings: with trim1_human MID2, Q9UJV3
# trim1_human MID2, Q9UJV3, sequence (Q9UJV3 whole entry): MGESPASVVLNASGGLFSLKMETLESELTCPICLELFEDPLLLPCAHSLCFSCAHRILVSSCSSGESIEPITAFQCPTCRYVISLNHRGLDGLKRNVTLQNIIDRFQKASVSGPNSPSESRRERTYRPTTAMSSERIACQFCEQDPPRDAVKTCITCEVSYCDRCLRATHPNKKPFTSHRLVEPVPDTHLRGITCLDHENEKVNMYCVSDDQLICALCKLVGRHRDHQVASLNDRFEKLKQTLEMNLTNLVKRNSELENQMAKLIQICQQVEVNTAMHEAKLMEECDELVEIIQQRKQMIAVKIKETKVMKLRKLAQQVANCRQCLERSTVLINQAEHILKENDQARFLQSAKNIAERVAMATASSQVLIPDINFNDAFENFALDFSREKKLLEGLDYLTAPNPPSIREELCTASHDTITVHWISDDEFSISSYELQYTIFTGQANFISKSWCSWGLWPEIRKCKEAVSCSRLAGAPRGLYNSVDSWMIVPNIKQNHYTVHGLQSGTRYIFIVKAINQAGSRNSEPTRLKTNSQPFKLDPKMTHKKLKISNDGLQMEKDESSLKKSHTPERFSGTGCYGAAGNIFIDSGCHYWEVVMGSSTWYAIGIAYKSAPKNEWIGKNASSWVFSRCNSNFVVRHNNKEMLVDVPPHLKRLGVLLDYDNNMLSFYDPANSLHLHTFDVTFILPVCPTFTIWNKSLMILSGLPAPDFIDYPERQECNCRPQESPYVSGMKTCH
row,effect of a mutation on the interaction,Variant
1,with no effect,T796M
